20 molecules from publication PMC10266124 (mAbs, 2023) can be followed below.

Sequences and labels used below:
B1: mAb02 (casirivimab) (antibody, V domains shown)
VH: QVQLVESGGGLVKPGGSLRLSCAASGFTFSDYYMSWIRQAPGKGLEWVSYITYSGSTIYYADSVKGRFTISRDNAKSSLYLQMNSLRAEDTAVYYCARDRGTTMVPFDYWGQGTLVTVSS
VL: DIQMTQSPSSLSASVGDRVTITCQASQDITNYLNWYQQKPGKAPKLLIYAASNLETGVPSRFSGSGSGTDFTFTISGLQPEDIATYYCQQYDNLPLTFGGGTKVEIK
B2: mAb23 (COVA1-16) (antibody, V domains shown)
VH: QVQLVQSGAEVKKPGASVKVSCKASGYTFTSYYMHWVRQAPGQGLEWMGIINSSGGSTSYAQKFQGRVTMTRDTSTSTVYMELSSLRSEDTAVYYCARPPRNYYDRSGYYQRAEYFQHWGQGTLVTVSS
VL: DIQLTQSPSSLSASVGDRVTITCQASQDISNYLNWYQQRPGKAPKLLIYDASNLETGVPSRFSGSGSGTDFTFTISSLQPEDIATYYCQQYDNPPLTFGGGTKLEIK
B3: mAb10 (52) (antibody, V domains shown)
VH: QVQLVQSGAEVKKPGSSVKVSCKASGYTFTSYGISWVRQAPGQGLEWMGGIIPMFGTTNYAQKFQGRVTITADKSTSTAYMELSSLRSEDTAVYYCARDRGDTIDYWGQGTLVTVSS
VL: DIQMTQSPSSLSASVGDRVTITCRASQGISNNLNWYQQKPGKAPKLLIYAASSLESGVPSRFSGSGSGTDFTLTISSLQPEDFATYYCQQGNGFPLTFGPGTKVDIK
B4: mAb15 (C119) (antibody, V domains shown)
VH: QVQLVQSGAEVKKPGASVKVSCKASGYTFTSYYMHWVRQAPGQGLEWMGIINPSGGSTSYAQKLQGRVTMTRDTSTSTVYMELSSLRSEDTAVYYCARANHETTMDTYYYYYYMDVWGKGTTVTVSS
VL: QSALTQPASVSGSPGQSITISCTGTSSDVGGYKYVSWYQRHPGKAPKLMIYDVSNRPSGVSNRFSGSKSGNTASLTISGLQAEDEADYYCSSYTSSSTSVVFGGGTQLTVL
B5: mAb03 (imdevimab) (antibody, V domains shown)
VH: QVQLVESGGGVVQPGRSLRLSCAASGFTFSNYAMYWVRQAPGKGLEWVAVISYDGSNKYYADSVKGRFTISRDNSKNTLYLQMNSLRTEDTAVYYCASGSDYGDYLLVYWGQGTLVTVSS
VL: QSALTQPASVSGSPGQSITISCTGTSSDVGGYNYVSWYQQHPGKAPKLMIYDVSKRPSGVSNRFSGSKSGNTASLTISGLQSEDEADYYCNSLTSISTWVFGGGTKLTVL
B6: mAb27 (H014) (antibody, V domains shown)
VH: EVQLVQSGAEVKKPGATVKISCKVSGYSFSNYYIHWVKQAPGKSLEWIGYIDPFNGGTSDNLKFKGAATLTADTSTDTAYMELSSLRSEDTAVYYCARSEYDPYYVMDYWGQGTTVTVSS
VL: IVLTQSPFQSVSPKEKVTITCRASQSISSNLHWYQQKPDQSPKLLIKYASQSISGIPSRFSGSGSGTDFTLTINSLEAEDFGIYFCQQTNFWPYIFGQGTKLEIL
B7: mAb24 (S2E12) (antibody, V domains shown)
VH: not shown
VL: DIVLTQTPGTLSLSPGERATLSCRASQSVSSSYLAWYQQKPGQAPRLLIYGASSRATGIPDRFSGSGSGTDFTLTISRLEPEDFAVYYCQQYVGLTGWTFGQGTKVEIK
B8: mAb29 (regdanvimab) (antibody, V domains shown)
VH: QITLKESGPTLVKPTQTLTLTCSFSGFSLSTSGVGVGWIRQPPGKALEWLALIDWDDNKYHTTSLKTRLTISKDTSKNQVVLTMTNMDPVDTATYYCARIPGFLRYRNRYYYYGMDVWGQGTTVTVSS
VL: ELVLTQPPSVSAAPGQKVTISCSGSSSNIGNNYVSWYQQLPGTAPKLLIYDNNKRPSGIPDRFSGSKSGTSATLGITGLQTGDEADYYCGTWDSSLSAGVFGGGTELTVL
B9: mAb11 (298) (antibody, V domains shown)
VH: QVQLVQSGAEVKKPGASVKVSCKASGGTFSTYGISWVRQAPGQGLEWMGWISPNSGGTDLAQKFQGRVTMTRDTSTSTVYMELSSLRSEDTAVYYCASDPRDDIAGGYWGQGTLVTVSS
VL: not shown
B10: mAb25 (S2M11) (antibody, V domains shown)
VH: EVQLVQSGAEVKKPGASVKVSCKASGYTFTGYYMHWVRQAPGQGLEWMGWINPISSGTSYAQTFQGRVTMTSDTSITTAYMELSRLRSDDTAVYYCARAAPFYDFWSGYSYFDYWGQGTLVTVSS
VL: not shown
B11: mAb16 (C121) (antibody, V domains shown)
VH: not shown
VL: QSALTQPASVSGSPGQSITISCTGTSSDVGSYNLVSWYQQHPGKAPKLMIYEGSKRPSGVSNRFSGSKSGNTASLTISGLQAEDEADYYCCSYAGSSTLVFGGGTKLTVL
B12: mAb19 (CV07-270) (antibody, V domains shown)
VH: QVQLVESGGGLVKPGGSLRLSCAASGFTFSDYYMTWIRQAPGKGLEWVSYISSSGSTIYYADSVKGRFTISRDNAKNSLYLQMNSLRAEDTAVYYCARARGSSGWYRIGTRWGNWFDPWGQGTLVTVSS
VL: QSALTQPASVSGSPGQSITISCTGTSSDVGGYNYVSWYQQHPGKAPKLMIYEVSNRPSGVSNRFSGSKSGNTASLTISGLQAEDEADYYCSSYTSSSNVVFGGGTMLTVL
B13: mAb09 (etesevimab) (antibody, V domains shown)
VH: EVQLVESGGGLVQPGGSLRLSCAASGFTVSSNYMSWVRQAPGKGLEWVSVIYSGGSTFYADSVKGRFTISRDNSMNTLFLQMNSLRAEDTAVYYCARVLPMYGDYLDYWGQGTLVTVSS
VL: not shown
B14: mAb22 (S304) (antibody, V domains shown)
VH: VQLVESGGGLVQPGGSLRLSCAASGFTFSSYDMHWVRQTTGKGLEWVSTIGTAGDTYYPDSVKGRFTISREDAKNSLYLQMNSLRAGDTAVYYCARGDSSGYYYYFDYWGQGTLLTVSS
VL: DIEMTQSPSSLSAAVGDRVTITCRASQSIGSYLNWYQQKPGKAPKLLIYAASSLQSGVPSRFSGSGSGTDFTLTISSLQPEDFAIYYCQQSYVSPTYTFGPGTKVDIK
B15: mAb21 (S2A4) (antibody, V domains shown)
VH: EVQLVESGGGLVQPGGSLRLSCAASGFTFSSYWMNWVRQAPGKGLEWVANIKQDGSEKYYVDSVKGRFTISRDNAKNSLFLQMNSLRAEDTAVYYCARVWWLRGSFDYWGQGTLVTVSS
VL: NFMLTQPHSVSESPGKTVTISCTGSSGSIASNYVQWYQQRPGSAPTTVIYEDNQRPSGVPDRFSGSIDSSSNSASLTISGLKTEDEADYYCQSYDSSNHVVFGGGTKLTVL
B16: mAb18 (CV07-250) (antibody, V domains shown)
VH: QVQLVQSEAEVKEPGASVEVSCKASGYNFTNFAISWVRQAPGQGLEWMGWISGYNGDTNSAQKFLGRVTMTTDTSTTTAYMELRSLRSDDTAVYYCAGSDNYGFPYNGMDVWGQGTTVTVFN
VL: QSALTQPPSASGSPGQSVTISCTGTSSDLGAYHFVTWYQHYPGKAPKVMIYGVRKRPSGVPDRFSGSKSGNTASLTVSGLQDEDEADYYCSSYAGNNDFVFGGGTKLTVL
B17: mAb01 (bamlanivimab) (antibody, V domains shown)
VH: QVQLVQSGAEVKKPGSSVKVSCKASGGTFSNYAISWVRQAPGQGLEWMGRIIPILGIANYAQKFQGRVTITADKSTSTAYMELSSLRSEDTAVYYCARGYYEARHYYYYYAMDVWGQGTAVTVSS
VL: not shown
B18: mAb14 (C002) (antibody, V domains shown)
VH: EVQLVESGGGVVQPGRSLRLSCAASGFTFSIYGMHWVRQAPGKGLEWVAVISYDGSNKYYADSVKGRFTISRDNSKNTLYLQMNSLRAEDTAVYYCAKEGRPSDIVVVVAFDYWGQGTLVTVSS
VL: not shown
B19: mAb26 (4A8) (antibody, V domains shown)
VH: EVQLVESGAEVKKPGASVKVSCKVSGYTLTELSMHWVRQAPGKGLEWMGGFDPEDGETMYAQKFQGRVTMTEDTSTDTAYMELSSLRSEDTAVYYCATSTAVAGTPDLFDYYYGMDVWGQGTTVTVSS
VL: EIVMTQSPLSSPVTLGQPASISCRSSQSLVHSDGNTYLSWLQQRPGQPPRLLIYKISNRFSGVPDRFSGSGAGTDFTLKISRVEAEDVGVYYCTQATQFPYTFGQGTKVDIK
B20: mAb08 (B38) (antibody, V domains shown)
VH: EVQLVESGGGLVQPGGSLRLSCAASGFIVSSNYMSWVRQAPGKGLEWVSVIYSGGSTYYADSVKGRFTISRHNSKNTLYLQMNSLRAEDTAVYYCAREAYGMDVWGQGTTVTVSS
VL: DIVMTQSPSFLSASVGDRVTITCRASQGISSYLAWYQQKPGKAPKLLIYAASTLQSGVPSRFSGSGSGTEFTLTISSLQPEDFATYYCQQLNSYPPYTFGQGTKLEIK

This assay addresses Biotinylated SARS-CoV-2 spike S1 protein (SARS-CoV-2, Wuhan, UniProt P0DTC2, biotin (biotinylated)). The experiment in a line: SPR. Background: SPR reads the build-up and loss of mass on a sensor chip optically.
For B1, the binding result was “binds”.
Next, B2: “binds”; B3: “binds”.
Next, B4: “binds”; B5: “binds”; B6: “binds”.
The same measure for B7: “binds”.
As for B8, the binding result is “binds”.
With B9, the binding result is “binds”.
As for B10, the binding result was “binds”.
For B11, the binding result was “binds”.
On to B12, for which the binding result is “binds”.
Next, B13: “binds”; B14: “binds”; B15: “binds”.
With B16, the binding result was “binds”.
Next, B17: “binds”.
The same measure for B18: “binds”; for B19: “binds”; for B20: “binds”.
